Values quoted from earlier work as cited in publication PMC10522771.

Key:
CBP TAZ1 (Homo sapiens) = CBP TAZ1 (Homo sapiens) (UniProt Q92793)
CBP TAZ2 (Homo sapiens) = CBP TAZ2 (Homo sapiens) (UniProt Q92793)
CBP TAZ2 (Homo sapiens), sequence (Q92793 1764-1855): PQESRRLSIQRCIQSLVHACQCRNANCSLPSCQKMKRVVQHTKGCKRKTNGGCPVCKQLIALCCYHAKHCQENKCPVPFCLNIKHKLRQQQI

MITF N-terminal TAD, sequence (O75030 224-295): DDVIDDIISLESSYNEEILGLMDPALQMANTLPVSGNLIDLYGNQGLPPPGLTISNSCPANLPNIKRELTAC
CBP TAZ1 (Homo sapiens), sequence (Q92793 340-439): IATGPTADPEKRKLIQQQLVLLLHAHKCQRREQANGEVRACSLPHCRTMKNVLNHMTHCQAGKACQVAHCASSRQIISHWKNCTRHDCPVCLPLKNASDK

Kd (CBP TAZ1 (Homo sapiens)): 6.7 µM
Kd (CBP TAZ2 (Homo sapiens)): 1.2 µM
Substance: MITF N-terminal TAD (from UniProt O75030)
